{"source": "patent US20090227507A1", "about": "“Angiotensin (1-7) Dosage Forms and Uses Thereof” (UNIVERSITY OF SOUTHERN CALIFORNIA, priority 2008, published 2009)", "test": "Adverse events, safety and tolerability in healthy men", "key": {"[1]": {"conditions": "200 μg/kg group, of the 7 events"}, "[2]": {"conditions": "300 μg/kg group, of the 13 events"}}, "note": "Entries after “also recorded” stand apart in the source; their conditions may differ.", "source_text": "Safety: Safety and tolerance evaluations included: • Tolerability including local reactions at the injection site. • Vital signs (blood pressure [BP], pulse rate [PR], respiration rate [RR], and temperature). • Routine clinical laboratory tests (hematology, serum biochemistry, and urinalysis). • Recording of adverse events (AE). • Electrocardiograms (ECG) at baseline and Day 8.\nDescriptive statistics were used to summarize adverse events (AEs). Descriptive statistics, with change from baseline, were used for clinical laboratory results, vital signs, and flow cytometry data. Shift tables were prepared for clinical laboratory results. Other data are listed.\nSafety evaluations are based on AEs, PEs, vital signs, temperature, and laboratory results from baseline to study completion. Laboratory measurements were conducted by a local clinical laboratory. Using standard procedures, blood samples were drawn or urine collected from subjects for the following laboratory tests:\nAll AEs were coded using the Medical Dictionary for Regulatory Activities Version 5.1 (MedDRA®)."}
{"substance": "Asp-Arg-Val-Tyr-Ile-His-Pro [USB003]", "values": [{"measurement": "Joint sprain, Subjects", "setting": "200 μg/kg (N = 9)", "value": "0 (0.0) N (%)"}, {"measurement": "Nasal congestion, Events", "setting": "200 μg/kg (N = 9)", "value": 1}, {"measurement": "Nasal congestion, Subjects", "setting": "200 μg/kg (N = 9)", "value": "1 (11.1) N (%)"}, {"measurement": "Nausea, Events", "setting": "200 μg/kg (N = 9)", "value": 0}, {"measurement": "Nausea, Subjects", "setting": "200 μg/kg (N = 9)", "value": "0 (0.0) N (%)"}, {"measurement": "Neoplasms benign, Events", "setting": "200 μg/kg (N = 9)", "value": 1}, {"measurement": "Neoplasms benign, Subjects", "setting": "200 μg/kg (N = 9)", "value": "1 (11.1) N (%)"}, {"measurement": "Nervous system disorders, Events", "setting": "200 μg/kg (N = 9)", "value": 0}, {"measurement": "Nervous system disorders, Subjects", "setting": "200 μg/kg (N = 9)", "value": "0 (0.0) N (%)"}, {"measurement": "Neutrophil count increased, Events", "setting": "200 μg/kg (N = 9)", "value": 0}, {"measurement": "Neutrophil count increased, Subjects", "setting": "200 μg/kg (N = 9)", "value": "0 (0.0) N (%)"}, {"measurement": "Pharyngitis, Events", "setting": "200 μg/kg (N = 9)", "value": 1}, {"measurement": "Pharyngitis, Subjects", "setting": "200 μg/kg (N = 9)", "value": "1 (11.1) N (%)"}, {"measurement": "Respiratory, thoracic and mediastinal disorders, Events", "setting": "200 μg/kg (N = 9)", "value": 2}, {"measurement": "Respiratory, thoracic and mediastinal disorders, Subjects", "setting": "200 μg/kg (N = 9)", "value": "1 (11.1) N (%)"}, {"measurement": "Subjects With At Least 1 AE, Events", "setting": "200 μg/kg (N = 9)", "value": 7}, {"measurement": "Subjects With At Least 1 AE, Subjects", "setting": "200 μg/kg (N = 9)", "value": "4 (44.4) N (%)"}, {"measurement": "WBC increased, Events", "setting": "200 μg/kg (N = 9)", "value": 1}, {"measurement": "WBC increased, Subjects", "setting": "200 μg/kg (N = 9)", "value": "1 (11.1) N (%)"}, {"measurement": "White blood cells in urine, Events", "setting": "200 μg/kg (N = 9)", "value": 0}, {"measurement": "White blood cells in urine, Subjects", "setting": "200 μg/kg (N = 9)", "value": "0 (0.0) N (%)"}, {"measurement": "subjects with clinically significant (CS) out-of-range laboratory values", "setting": "200 μg/kg dose group", "value": 3}, {"measurement": "total CS laboratory abnormalities", "setting": "200 μg/kg dose group", "value": 6}, {"measurement": "incidence of AEs", "setting": "200 μg/kg group", "value": 44.4, "unit": "%"}, {"measurement": "AE events assessed as doubtful relationship to study drug", "setting": "[1]", "value": 3}, {"measurement": "AE events assessed as not related to study drug", "setting": "[1]", "value": 2}, {"measurement": "AE events assessed as possible relationship to study drug", "setting": "[1]", "value": 2}, {"measurement": "adverse event, Subject 028", "setting": "200 μg/kg, Day 7, resolved without treatment on Study Day 10", "value": "cystic nodule on their anterior abdominal wall"}, {"measurement": "incidence of ALT increase", "setting": "300 μg/kg", "value": 0.0, "unit": "%"}, {"measurement": "incidence of body temperature increase", "setting": "300 μg/kg", "value": 50, "unit": "%"}, {"measurement": "ALT increased, Events", "setting": "300 μg/kg (N = 8)", "value": 0}, {"measurement": "ALT increased, Subjects", "setting": "300 μg/kg (N = 8)", "value": "0 (0.0) N (%)"}, {"measurement": "AST increased, Events", "setting": "300 μg/kg (N = 8)", "value": 1}, {"measurement": "AST increased, Subjects", "setting": "300 μg/kg (N = 8)", "value": "1 (12.5) N (%)"}, {"measurement": "Body temperature increased, Events", "setting": "300 μg/kg (N = 8)", "value": 7}, {"measurement": "Body temperature increased, Subjects", "setting": "300 μg/kg (N = 8)", "value": "4 (50.0) N (%)"}, {"measurement": "Cyst NOS, Events", "setting": "300 μg/kg (N = 8)", "value": 0}, {"measurement": "Cyst NOS, Subjects", "setting": "300 μg/kg (N = 8)", "value": "0 (0.0) N (%)"}, {"measurement": "Gastroesophageal reflux, Events", "setting": "300 μg/kg (N = 8)", "value": 0}, {"measurement": "Gastroesophageal reflux, Subjects", "setting": "300 μg/kg (N = 8)", "value": "0 (0.0) N (%)"}, {"measurement": "Gastrointestinal disorders, Events", "setting": "300 μg/kg (N = 8)", "value": 1}, {"measurement": "Gastrointestinal disorders, Subjects", "setting": "300 μg/kg (N = 8)", "value": "1 (12.5) N (%)"}, {"measurement": "Headache, Events", "setting": "300 μg/kg (N = 8)", "value": 0}, {"measurement": "Headache, Subjects", "setting": "300 μg/kg (N = 8)", "value": "1 (12.5) N (%)"}, {"measurement": "Infections/Infestations, Events", "setting": "300 μg/kg (N = 8)", "value": 1}, {"measurement": "Injury, poisoning and procedural complications, Events", "setting": "300 μg/kg (N = 8)", "value": 1}, {"measurement": "Injury, poisoning and procedural complications, Subjects", "setting": "300 μg/kg (N = 8)", "value": "1 (12.5) N (%)"}, {"measurement": "Investigations, Events", "setting": "300 μg/kg (N = 8)", "value": 9}, {"measurement": "Investigations, Subjects", "setting": "300 μg/kg (N = 8)", "value": "4 (50.0) N (%)"}, {"measurement": "Joint sprain, Events", "setting": "300 μg/kg (N = 8)", "value": 1}, {"measurement": "Joint sprain, Subjects", "setting": "300 μg/kg (N = 8)", "value": "1 (12.5) N (%)"}, {"measurement": "Nasal congestion, Events", "setting": "300 μg/kg (N = 8)", "value": 0}, {"measurement": "Nasal congestion, Subjects", "setting": "300 μg/kg (N = 8)", "value": "0 (0.0) N (%)"}, {"measurement": "Nausea, Events", "setting": "300 μg/kg (N = 8)", "value": 1}, {"measurement": "Nausea, Subjects", "setting": "300 μg/kg (N = 8)", "value": "1 (12.5) N (%)"}, {"measurement": "Neoplasms benign, Events", "setting": "300 μg/kg (N = 8)", "value": 0}, {"measurement": "Neoplasms benign, Subjects", "setting": "300 μg/kg (N = 8)", "value": "0 (0.0) N (%)"}, {"measurement": "Nervous system disorders, Events", "setting": "300 μg/kg (N = 8)", "value": 0}, {"measurement": "Nervous system disorders, Subjects", "setting": "300 μg/kg (N = 8)", "value": "1 (12.5) N (%)"}, {"measurement": "Neutrophil count increased, Events", "setting": "300 μg/kg (N = 8)", "value": 1}, {"measurement": "Neutrophil count increased, Subjects", "setting": "300 μg/kg (N = 8)", "value": "1 (12.5) N (%)"}, {"measurement": "Pharyngitis, Events", "setting": "300 μg/kg (N = 8)", "value": 0}, {"measurement": "Pharyngitis, Subjects", "setting": "300 μg/kg (N = 8)", "value": "0 (0.0) N (%)"}, {"measurement": "Respiratory, thoracic and mediastinal disorders, Events", "setting": "300 μg/kg (N = 8)", "value": 0}, {"measurement": "Respiratory, thoracic and mediastinal disorders, Subjects", "setting": "300 μg/kg (N = 8)", "value": "0 (0.0) N (%)"}, {"measurement": "Subjects With At Least 1 AE, Events", "setting": "300 μg/kg (N = 8)", "value": 13}, {"measurement": "Subjects With At Least 1 AE, Subjects", "setting": "300 μg/kg (N = 8)", "value": "4 (50.0) N (%)"}, {"measurement": "WBC increased, Events", "setting": "300 μg/kg (N = 8)", "value": 0}, {"measurement": "WBC increased, Subjects", "setting": "300 μg/kg (N = 8)", "value": "0 (0.0) N (%)"}, {"measurement": "White blood cells in urine, Events", "setting": "300 μg/kg (N = 8)", "value": 0}, {"measurement": "White blood cells in urine, Subjects", "setting": "300 μg/kg (N = 8)", "value": "0 (0.0) N (%)"}, {"measurement": "subjects with clinically significant (CS) out-of-range laboratory values", "setting": "300 μg/kg dose group", "value": 1}, {"measurement": "total CS laboratory abnormalities", "setting": "300 μg/kg dose group", "value": 2}, {"measurement": "subjects with elevations in oral body temperature assessed as an AE", "setting": "300 μg/kg dose group, temperature >37.7° C.", "value": 4}, {"measurement": "incidence of AEs", "setting": "300 μg/kg group", "value": 50.0, "unit": "%"}, {"measurement": "AE events assessed as doubtful relationship to study drug", "setting": "[2]", "value": 2}, {"measurement": "AE events assessed as not related to study drug", "setting": "[2]", "value": 3}, {"measurement": "AE events assessed as possible relationship to study drug", "setting": "[2]", "value": 8}, {"measurement": "onset of headache after the morning dose, Subject 053", "setting": "300 μg/kg, Day 2", "value": 10, "unit": "h"}, {"measurement": "time to resolution of headache without treatment, Subject 053", "setting": "300 μg/kg, Day 2", "value": 5, "unit": "h"}, {"measurement": "severity of ankle sprain, Subject 046", "setting": "300 μg/kg, study Day 18", "value": "Grade 2"}, {"measurement": "deaths or serious adverse events", "setting": "SC doses of 200 and 300 μg/kg", "value": "no deaths or other serious adverse events; also recorded: no deaths or SAEs"}, {"measurement": "discontinuation from the study because of an AE", "setting": "SC doses of 200 and 300 μg/kg", "value": "no subject discontinued from the study because of an AE; also recorded: no AE led to withdrawal from the study"}, {"measurement": "safety and tolerability", "setting": "SC doses of 200 and 300 μg/kg", "value": "safe and well tolerated"}, {"measurement": "CTC scores of AEs", "setting": "whole study", "value": "no AEs with CTC scores of Grade 3 or higher and only 1 Grade 2 toxicity"}]}
